Laboratory results: article PMC6615629, “Hsp70-nucleotide exchange factor (NEF) Fes1 has non-NEF roles in degradation of gluconeogenic enzymes and cell wall integrity” (PLoS Genetics, 2019)

Assays:
His6-Fbp1ΔP2 = biological target: T1, His6-Fbp1ΔP2 (yeast (S. cerevisiae), UniProt P09201 1-348, ΔP2); experiment: pull-down; His6-Fbp1 (wild type or mutant) pulled down on Talon metal affinity resin; reactions with two or all three proteins; 6 μg each of His6-Fbp1 (1.6 μM), Hsp70 (0.9 μM) and GST-Fes1 (1.09 μM), with or without ATP, ADP or AMP (2.5 mM); 50 mM Tris-HCl pH 7.5, 150 mM NaCl, 2% glycerol, 5 mM MgCl2; 30 min at 4°C; washed with 5 mM imidazole, eluted with 250 mM imidazole; stained SDS-PAGE gels, bands quantified …; settings: both partners purified
T1 construct: Fbp1, yeast gluconeogenic enzyme, proline 2 deleted; the initiator methionine is counted as residue 1; also called Fbp1P2Δ; source: E. coli expression, purified; not shown: His6, N-terminal, kept
T1 sequence (looked up): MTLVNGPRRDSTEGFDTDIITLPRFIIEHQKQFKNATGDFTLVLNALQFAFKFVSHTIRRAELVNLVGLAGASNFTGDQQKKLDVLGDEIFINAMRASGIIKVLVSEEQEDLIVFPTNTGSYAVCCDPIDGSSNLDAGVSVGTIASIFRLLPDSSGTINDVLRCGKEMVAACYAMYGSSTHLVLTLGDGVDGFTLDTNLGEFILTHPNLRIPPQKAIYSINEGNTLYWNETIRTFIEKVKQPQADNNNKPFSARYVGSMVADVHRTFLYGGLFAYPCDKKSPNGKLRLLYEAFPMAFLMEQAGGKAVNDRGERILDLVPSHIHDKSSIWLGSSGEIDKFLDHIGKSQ

His6-Fbp1 P2A = biological target: T2, His6-Fbp1 P2A (yeast (S. cerevisiae), UniProt P09201 1-348, P2A); experiment: as above; settings: both partners purified
T2 construct: Fbp1, yeast gluconeogenic enzyme, P2A; the initiator methionine is counted as residue 1; source: E. coli expression, purified; not shown: His6, N-terminal, kept
T2 sequence (looked up): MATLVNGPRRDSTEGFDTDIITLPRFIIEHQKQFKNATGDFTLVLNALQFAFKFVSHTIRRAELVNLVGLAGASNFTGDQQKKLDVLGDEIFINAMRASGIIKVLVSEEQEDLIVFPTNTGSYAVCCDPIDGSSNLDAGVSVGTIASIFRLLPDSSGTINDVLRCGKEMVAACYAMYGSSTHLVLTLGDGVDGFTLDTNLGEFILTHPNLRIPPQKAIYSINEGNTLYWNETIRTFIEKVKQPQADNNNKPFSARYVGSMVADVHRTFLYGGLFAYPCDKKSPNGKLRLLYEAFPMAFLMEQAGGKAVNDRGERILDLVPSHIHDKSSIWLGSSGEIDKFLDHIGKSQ

B1: GST-Fes1 (natural protein, yeast (S. cerevisiae), UniProt P38260 1-290, looked up)
chain: MEKLLQWSIANSQGDKEAMARAGQPDPKLLQQLFGGGGPDDPTLMKESMAVIMNPEVDLETKLVAFDNFEMLIENLDNANNIENLKLWEPLLDVLVQTKDEELRAAALSIIGTAVQNNLDSQNNFMKYDNGLRSLIEIASDKTKPLDVRTKAFYALSNLIRNHKDISEKFFKLNGLDCIAPVLSDNTAKPKLKMRAIALLTAYLSSVKIDENIISVLRKDGVIESTIECLSDESNLNIIDRVLSFLSHLISSGIKFNEQELHKLNEGYKHIEPLKDRLNEDDYLAVKYVL
notes: Fes1, yeast Hsp70 nucleotide exchange factor; also called wild type GST-Fes1; source: E. coli expression, purified as described [15]; not shown: GST, N-terminal, kept
Q: Which results are given for B1?
A: binding result (His6-Fbp1ΔP2): binds; binding result (His6-Fbp1 P2A): binds
